Reference: patent US9994616B2, “c-Met protein agonist” (The University of Tokyo, priority 2013, dated 2018)
Bridges are numbered along the chain shown (N, C = ends). Roman numbers before positions name the chains, in order. Where no end group is shown, it is not given here. [ ]: non-standard residue; d: D form. fluorescein = fluorescein fluorescent label attached to the peptide; βAla = NCCC(=O)O

Experiments:
c-Met-Fc = c-Met-Fc (Homo sapiens, UniProt P08581); assay: Binding ability by surface plasmon resonance (SPR, Biacore); settings: Table 11, monomer and dimeric peptides
Experimental: Binding ability of the thioether macrocyclic peptide was evaluated by SPR measurement using Biacore (GE Healthcare).
As a sensor chip, Sensor Chip CM5 was used and an anti-IgG antibody was immobilized on a measurement lane and a control lane by using Human Antibody Capture Kit.
On the measurement lane was immobilized c-Met-Fc, while on the control lane was immobilized Fc protein.
As a running buffer, HBS-EP+ buffer containing 0.1% DMSO was used and a dissociation constant of the thioether macrocyclic peptide was calculated at 5 different concentrations by using the single-kinetics method.

c-Met [1] = target: T1, c-Met (Homo sapiens, UniProt P08581); assay: Activity of dimeric peptide by ELISA (c-Met phosphorylation level in EHMES-1 cells); format: cell-based; settings: for Activity (c-Met phosphorylation level by ELISA): Table 12, EHMES-1 cells, 10 minutes stimulation; for c-Met phosphorylation: Table 13
T1 construct: endogenous in cells; host or cells: EHMES-1 (human mesothelioma)
Experimental: Each dimeric peptide was added to human EHMES-1 cells and the mixture was incubated for 10 minutes to stimulate the cells.
As a control experiment, a recombinant human HGF protein was added and the mixture was incubated for 10 minutes to stimulate cells.
A phosphorylation level of c-Met was quantitatively analyzed using ELISA.

human Hcc-827 cells = assay: Cell growth of Iressa-inhibited Hcc-827 cells (MTS assay); format: cell-based; settings: Table 13, Hcc-827 cells inhibited by Iressa
Experimental: Dimeric peptides were added to human Hcc-827 cells whose cell growth was inhibited by the addition of Iressa and the resulting mixture was cultured to activate the cell growth ability via a c-Met signaling pathway. The cell count of the thus-cultured cells was quantitatively determined by the assay using MTS (3-(4,5-dimethylthiazol-2-yl)-5-(3carboxymethoxyphenyl)-2-(4-sulphophenyl)-2H-tetrazolium, inner salt).

[2] = tested on: human c-Met expressing cells (human SNU-638 cells); assay: Localization of fluorescein-modified peptides on c-Met expressing cells (confocal microscopy); format: cell-based; settings: 1 μM fluorescein peptide, FIG. 2A
Experimental: To human c-Met expressing cells (human SNU-638 cells) or human c-Met non-expressing cells (human SNU-216 cells) cultured on a glass-bottom dish were added a RPMI1640 medium containing 1 mg/L of Hoechst 33342, a nuclear staining reagent, an anti-human c-Met antibody, and 1 uM of L5-2-fluorescein, D4-3-fluorescein, D5-4-fluorescein, D4-3NMe-fluorescein, or D4-3scr-fluorescein and the resulting mixture was incubated in 5% CO2 at 37° C. for 5 minutes. Then, a RPMI1640 medium containing an HRP-anti-rat secondary antibody and 1 μM of L5-2-fluorescein, D4-3-fluorescein, D5-4-fluorescein, D4-3NMe-fluorescein, or D4-3scr-fluorescein was added and the resulting mixture was incubated in 5% CO2 at 37° C. for 5 minutes.
The cells were washed three times with a D-MEM medium and were microscopically observed in a new RPMI1640 medium. The localization of the peptide was observed using a confocal fluorescence microscope for the microscopic observation.

human HuCCT1 cells = assay: Cell migration of HuCCT1 cells on pore-containing plate; format: cell-based; settings: Table 13
Experimental: In addition, human HuCCT1 cells were seeded on a pore-containing plate and cultured in a medium mixed with each of the dimeric peptides to evaluate activation of cell migration ability.

c-Met [3] = target: T1, c-Met; assay: Activity of dimeric peptide by Phospho-RTK array in EHMES-1 cells; format: cell-based; settings: optimum concentration, 10 minutes, FIG. 4
Experimental: (§1) The optimum concentration of each dimeric peptide was added to cultured EHMES-1 cells derived from human mesothelioma and the resulting mixture was incubated for 10 minutes to stimulate the cells. As a control experiment, 2 nM recombinant human HGF protein was added, followed by incubation for 10 minutes.
The resulting cells were lyzed and the lysate thus obtained was analyzed using Phospho-RTK array (R&D Systems) to evaluate whether or not the c-Met of the cells was phosphorylated.

[4] = tested on: c-Met, Gab1, Akt, and Erk proteins; assay: Activity of dimeric peptide by western blotting in EHMES-1 cells; format: cell-based, human; settings: 10 minutes, FIG. 5
Experimental: as §1, with “each of the” for “each”, “peptides” for “peptide”, “nM of a” for “nM”
The cells were lysed and the resulting lysate was electrophoresed using a 10% modified polyacrylamide gel. After transcription of the protein thus separated to an Immobilon-P PVDF membrane (Millipore) and blocking with PVDF Blocking Reagent for Can Get Signal (TOYOBO), a primary antibody reaction of it was performed overnight at 4° C. in Can Get Signal Solution 1 (TOYOBO). As the antibody, anti-Met (Millipore, EP1454Y), anti-Phospho-Met Tyr1234/1235 (Cell Signaling Technology, D26), anti-Phospho-Met Tyr1349 (Millipore, 07-808), anti-Akt (Cell Signaling Technology, 11E7), anti-Phospho-Akt Thr308 (Cell Signaling Technology, D25E6), anti-Erk1/2 (Cell Signaling Technology, 137F5), anti-Phospho-Erk1/2 Thr202/Tyr204 (Cell Signaling Technology, D13.14.4E), anti-Gab1 (Cell Signaling Technology), or anti-Phospho-Gab1 Tyr 627 (Cell Signaling Technology, C32H2) was used. Then, a secondary antibody reaction was performed at room temperature for one hour in Can Get Signal Solution 2 (TOYOBO) by using an anti-rabbit antibody HRP conjugate. […]

T1 sequence (P08581 25-1390): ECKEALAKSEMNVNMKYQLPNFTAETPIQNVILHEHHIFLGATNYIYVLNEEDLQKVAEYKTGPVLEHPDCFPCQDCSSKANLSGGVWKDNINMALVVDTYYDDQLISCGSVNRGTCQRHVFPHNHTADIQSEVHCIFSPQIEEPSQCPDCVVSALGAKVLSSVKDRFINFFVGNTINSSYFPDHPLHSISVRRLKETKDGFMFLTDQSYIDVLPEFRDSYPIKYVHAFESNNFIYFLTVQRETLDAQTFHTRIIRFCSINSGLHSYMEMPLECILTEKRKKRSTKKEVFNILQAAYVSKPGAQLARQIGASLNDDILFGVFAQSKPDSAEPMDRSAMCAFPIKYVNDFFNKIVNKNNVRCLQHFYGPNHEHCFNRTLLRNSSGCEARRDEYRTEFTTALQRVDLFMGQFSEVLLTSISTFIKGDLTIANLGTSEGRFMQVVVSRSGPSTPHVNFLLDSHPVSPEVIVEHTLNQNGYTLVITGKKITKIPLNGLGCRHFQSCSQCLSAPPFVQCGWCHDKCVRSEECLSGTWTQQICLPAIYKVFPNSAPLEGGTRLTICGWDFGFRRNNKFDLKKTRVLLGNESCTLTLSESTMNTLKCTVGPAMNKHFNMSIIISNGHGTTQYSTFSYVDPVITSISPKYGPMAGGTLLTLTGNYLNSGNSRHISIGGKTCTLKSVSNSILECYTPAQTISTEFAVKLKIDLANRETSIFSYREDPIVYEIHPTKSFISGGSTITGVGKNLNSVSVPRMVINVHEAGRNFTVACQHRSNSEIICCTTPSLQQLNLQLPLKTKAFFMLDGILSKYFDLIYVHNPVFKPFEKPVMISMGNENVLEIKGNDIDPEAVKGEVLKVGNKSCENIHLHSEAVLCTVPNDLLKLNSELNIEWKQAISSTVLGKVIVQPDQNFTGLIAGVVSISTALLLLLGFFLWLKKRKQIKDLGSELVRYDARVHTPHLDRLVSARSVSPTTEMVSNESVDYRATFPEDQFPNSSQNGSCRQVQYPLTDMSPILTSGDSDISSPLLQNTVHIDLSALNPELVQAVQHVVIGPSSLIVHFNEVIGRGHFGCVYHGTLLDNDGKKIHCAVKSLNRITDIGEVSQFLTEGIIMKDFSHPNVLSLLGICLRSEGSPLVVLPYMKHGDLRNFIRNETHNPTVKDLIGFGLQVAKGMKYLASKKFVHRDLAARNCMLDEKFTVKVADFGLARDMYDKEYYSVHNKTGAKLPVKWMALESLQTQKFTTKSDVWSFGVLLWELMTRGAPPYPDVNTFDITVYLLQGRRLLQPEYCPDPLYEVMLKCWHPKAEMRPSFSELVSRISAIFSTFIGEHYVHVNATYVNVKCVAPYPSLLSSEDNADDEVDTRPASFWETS
Sequence of c-Met-Fc (P08581 with tags, fused parts or gaps limits assumed): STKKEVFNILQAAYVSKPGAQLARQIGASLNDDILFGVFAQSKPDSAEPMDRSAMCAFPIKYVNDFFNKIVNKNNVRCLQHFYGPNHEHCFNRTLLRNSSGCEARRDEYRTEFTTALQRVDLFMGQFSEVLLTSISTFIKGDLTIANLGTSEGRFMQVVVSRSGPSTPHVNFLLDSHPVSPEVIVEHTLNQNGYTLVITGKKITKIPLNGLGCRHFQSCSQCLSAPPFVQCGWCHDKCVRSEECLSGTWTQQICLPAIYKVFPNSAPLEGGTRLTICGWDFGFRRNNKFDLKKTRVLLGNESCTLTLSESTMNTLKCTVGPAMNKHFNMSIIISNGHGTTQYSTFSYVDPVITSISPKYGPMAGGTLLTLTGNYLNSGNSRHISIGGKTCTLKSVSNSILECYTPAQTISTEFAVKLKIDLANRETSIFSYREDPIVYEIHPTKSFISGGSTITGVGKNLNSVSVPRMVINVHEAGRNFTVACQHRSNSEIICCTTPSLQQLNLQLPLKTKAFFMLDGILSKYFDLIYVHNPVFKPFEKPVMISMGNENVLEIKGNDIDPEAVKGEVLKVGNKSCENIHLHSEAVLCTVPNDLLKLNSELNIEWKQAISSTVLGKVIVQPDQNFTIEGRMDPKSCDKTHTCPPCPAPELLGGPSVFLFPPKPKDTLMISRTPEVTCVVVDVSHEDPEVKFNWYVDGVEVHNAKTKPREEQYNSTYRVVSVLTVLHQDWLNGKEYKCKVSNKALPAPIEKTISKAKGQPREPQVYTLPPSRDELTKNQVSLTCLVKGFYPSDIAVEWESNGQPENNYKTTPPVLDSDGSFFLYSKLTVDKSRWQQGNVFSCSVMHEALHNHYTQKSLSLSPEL
Sequence of c-Met-Fc (P08581 25-307 limits assumed): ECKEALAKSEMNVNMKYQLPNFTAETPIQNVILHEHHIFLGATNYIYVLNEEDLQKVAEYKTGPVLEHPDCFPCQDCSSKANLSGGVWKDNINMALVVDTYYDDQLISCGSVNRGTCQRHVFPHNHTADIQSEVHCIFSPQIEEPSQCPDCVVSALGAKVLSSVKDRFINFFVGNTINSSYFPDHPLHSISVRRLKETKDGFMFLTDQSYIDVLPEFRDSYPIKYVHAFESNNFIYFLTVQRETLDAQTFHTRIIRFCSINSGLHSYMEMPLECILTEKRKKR

| Substance | ka (c-Met-Fc) | kd (c-Met-Fc) | Activity (c-Met phosphorylation level by ELISA) (c-Met [1]) | c-Met phosphorylation (c-Met [1]) | Cell growth (human Hcc-827 cells) | Binding to c-Met expressing cells [2] | Cell migration (human HuCCT1 cells) | Autophosphorylation of c-Met (Phospho-RTK array) (c-Met [3]) | Phosphorylation of c-Met, Gab1, Akt, and Erk proteins (western blotting) [4] |
| --- | --- | --- | --- | --- | --- | --- | --- | --- | --- |
| D4-3 BMH: dimeric peptide: two D4-3 macrocycles linked through C-terminal Cys by BMH linker ({CH2CO}-[dY]RQFNRRTHEVWNLDCGC; thioether N-16; not fully specified (residue 18); also: dimer: two copies joined by BMH, linker at 18 via BMH, other end not in the chain) | 2.0 10^6 M^−1s^−1 | 0.091 10^−2 s^−1 | Low | Promote | Activate |  |  |  |  |
| D4-3-fluorescein: Fluorescein-modified D4-3 peptide, fluorescein on the side chain of C-terminal lysine ({CH2CO}-[dY]RQFNRRTHEVWNLDCGK(fluorescein); thioether N-16) |  |  |  |  |  | colocalized with and bind to |  |  |  |
| D4-3NMe-fluorescein: Fluorescein-modified N-methylated D4-3 peptide ({CH2CO}-[dY]RQFNRRTHEVWNLDCGK(fluorescein); thioether N-16; also: two amino acids N-methylated (N6 + N16)) |  |  |  |  |  | colocalized with and bind to |  |  |  |
| D4-3scr-fluorescein: Fluorescein-modified c-Met-unbinding peptide ({CH2CO}-YERVNHLFRNQTWDRCGK(fluorescein); thioether N-16 (inferred)) [reference compound] |  |  |  |  |  | does not bind |  |  |  |
| D5-4 BMH: dimeric peptide: two D5-4 macrocycles linked through C-terminal Cys by BMH linker (peptide 1 {CH2CO}-[dY]WYYAWDQTYKAFPCG; peptide 2 {CH2CO}-[dY]WYYAWDQTYKAFPCG; thioether I:N-I:15, II:N-II:15; not fully specified (C-terminus); also: dimer: two chains joined by BMH through an added C-terminal Cys not in the letters) | 0.046 10^6 M^−1s^−1 | 0.055 10^−2 s^−1 | High | Promote | Activate |  |  |  |  |
| D5-4 Bis-MAL-PEG11: dimeric peptide: two D5-4 macrocycles linked through C-terminal Cys by Bis-MAL-PEG11 linker (peptide 1 {CH2CO}-[dY]WYYAWDQTYKAFPCG; peptide 2 {CH2CO}-[dY]WYYAWDQTYKAFPCG; thioether I:N-I:15, II:N-II:15; not fully specified (C-terminus); also: dimer: two chains joined by Bis-MAL-PEG11 through an added C-terminal Cys not in the letters) | 5.3 10^6 M^−1s^−1 | 1.1 10^−2 s^−1 | High | Promote |  |  | Activate |  |  |
| HGF: recombinant human HGF protein, natural ligand of c-Met, control |  |  |  |  |  |  |  | autophosphorylation is induced | promote phosphorylation |
| L5-2 BMH: dimeric peptide: two L5-2 macrocycles linked through C-terminal Cys by BMH linker ({CH2CO}-YISWNEFNSPNWRFITCG[βAla]C-NH2; thioether N-17; not fully specified (residue 20); also: dimer: two copies joined by BMH, linker at 20 via BMH, other end not in the chain) | 0.083 10^6 M^−1s^−1 | 0.054 10^−2 s^−1 | Low | Promote | Activate |  |  |  |  |
| L5-2 Bis-MAL-PEG3: dimeric peptide: two L5-2 macrocycles linked through C-terminal Cys by Bis-MAL-PEG3 linker ({CH2CO}-YISWNEFNSPNWRFITCG[βAla]C-NH2; thioether N-17; not fully specified (residue 20); also: dimer: two copies joined by Bis-MAL-PEG3, linker at 20 via Bis-MAL-PEG3, other end not in the chain) | 0.22 10^6 M^−1s^−1 | 0.042 10^−2 s^−1 | High | Promote |  |  | Activate |  |  |
